# Assays:
# [1] = system: HCMV infected lung tissue; assay: Immunohistochemistry (IHC) on human lung tissue; conditions: normal lung tissue with HCMV DNA positive macrophages
# Excerpt: FIG. 12. […] binding in 1:400 dilution (w/v) to HCMV-infected human tissues were studied by using immunohistochemistry analysis (IHC). […] The arrows (in the non-colour version of this figure) mark the US28-13-5G6-1D3 rAb cytoplasmic staining on typical HCMV infected alveolar cells with the characteristic cytomegalo effect in the HCMV positive control slide. […] C. The same macrophages show positive HCMV DNA in the same lung biopsy, whereas there are no HCMV DNA signals in normal alveolar cells, which is coherent with the US28 staining in the same sample. […] E. The IE staining is negative for the alveolar HCMV positive macrophages in normal lung tissue. […] Colour versions of FIG. 12 are also provided alongside the non-colour versions.
# FIG. 25. The binding of the N-terminal antibodies to HCMV infected lung tissue and HCMV negative myometrium were studied by IHC. […] C. […] E. Mouse lung tissue with staining IgG was used as negative control antibody. […] As with the US28-13-5G6-1D3 rAb, the ECD1-binding molecules stained typical HCMV infected cells with the characteristic cytomegalo effect, showing strong cytoplasmic or membranous staining in these cells, as the US28 protein is known to be located in cytoplasm and cell membrane, and stained positively for some tissue macrophages, which are known to be carriers of latent or reactivated HCMV.
# [2] = biological target: T1, US28 of HCMV strain TB40/E on CHO cells (Human cytomegalovirus, UniProt P69332, A8T/D15E/E18L/V24T); assay: FACS binding to CHO cells expressing TB40/E form of US28; conditions: FIG. 21C
# T1 construct: expressed in transfected cells; host or cells: CHO cells
# Excerpt: The plasmids carrying the DNA for the TB40/E, VHL/E, and Merlin constructs and mutated US28 strain (SEQ ID Nos: 254, 272, 273 and 255, respectively) were also manufactured in the similar manner.
# Flowcytometry was used to analyze cell surface binding by the US28 antibodies. Upon cell harvest, adherent non-infected and US28 overexpressing or HCMV infected cells were washed three times with cell staining buffer (phosphate-buffered saline (PBS (Amresco, Cleveland, 44139, USA) added 0.5% BSA and 0.05% Sodium Azide (NaN3)). The cells were trypisinized and then resuspended in DMEM with 10% FBS to inhibit the action of trypsin. The cells were then pelleted at 400×g for 10 minutes and washed three times in cell staining buffer. Cell viability and cell concentration were measured by tryphan blue viability assay and a cell counter (Countess, Invitrogen, Carlsbad, CA 92008, USA). The cell suspension was adjusted to 1×10^6 cells/mL with ice-cold cell staining buffer. The cells were blocked in 1 ml 10% FBS or 1% BSA in PBS per 1×10^6 cells, vortexed briefly, and incubated for 10-30 minutes to eliminate non-specific staining. The cells were then stained with the respective antibodies and appropriate negative controls. […]
molecule,measurement,setting,value
"13-5G6-1D3: mouse monoclonal IgG1 kappa antibody against US28 ECD3; VH SEQ ID NO: 12, VL SEQ ID NO: 18 (antibody, V domains shown, Mature form of VH sequence of 1D3, without the leader sequence; Mature form of VL sequence of 1D3, without the leader sequence) VH: EVKLVESGGGLVQPGGSLRLACATSGFTFTDYYMSWVRQPPGKALEWLGFIRSKANGYTTEYSASVKGRFTISRDNSQSILYLQMNTLRSEDSATYYCARDERRTAWLAYWGQGTLVTVSA VL: DVLMTQTPLSLPVSLGDQASISCRSSQSIVHSNGNTYLDWYLQKPGQSPKLLIYKVSNRFSGVPDRFSGSGSGTDFTLKISRVEAEDLGVYYCFQGSHVPTWTFGGGTKLEIK",IHC staining of normal lung tissue,[1],"positive US28 staining for macrophages, but negative staining for alveolar cells"
same,% change in absolute levels of binding between DB and TB40/E forms of US28,[2],less than 10%

# Source: US20250296984A1, “THERAPEUTIC AND DIAGNOSTIC AGENTS AND USES THEREOF” (priority 2022, published 2025)
